# Test results reported in the RNAGym collection of RNA variant scans (doi:10.1021/acssynbio.7b00057).
# B1: Pistol ribozyme (parent)
# chain: GGGUCGUUGUUCCAUAAUCGCGUGGAUAUGGCACGCAAGUUUCUACCGGGCACCGUAAAUGUCCGACUGGAGCCGUUCGGGCGGCUAUAAACAGACCUCAGGCCCGAAGCGUGGCGGCACCUGCCGCCGGUGGUAAAAAAGAUCGGAAGAGCACACGUCU
# Variants of: B1
# Assay: aptazyme ON/OFF ratio, guanine; higher = stronger switching; co-transcriptional cleavage with and without guanine
row,Variant,aptazyme ON/OFF ratio
1,G9U U10C U11G C12U C13A,1.46
2,G9U U10A U11A C12A C13U,1.41
3,G9U U10A U11A C12A C13A,1.37
4,G9U U10A U11A C12A C13G,1.29
5,G9U U10A U11G C12G,2.12
6,G9U U10A U11G C12U,1.27
7,G9U U10A U11G C12A,1.79
8,G9U U10A C12G,1.41
9,G9U U10A C12U,1.41
10,G9U U10A C12A,1.21
11,G9U U10A U11A C12A,1.54
12,G9U U10A U11A C12U,1.64
13,G9U U10A U11A C12G,1.47
14,G9U U11C C13A,1.22
15,G9U U11C C13U,1.37
16,G9U U11C C13G,1.06
17,G9C U11C C12A,1.25
18,G9C U11C C12U,1.14
19,G9C U11C C12G,1.22
20,G9U U11C C12U C13A,1.51
21,G9U U11C C12U C13G,1.23

row,Variant,aptazyme ON/OFF ratio
1,G9U U11C C12U C13U,1.34
2,G9U U10G U11G C12U,1.33
3,G9U U10G U11G C12G,1.82
4,G9U U10G U11G C12A,1.75
5,G9U U10G U11C C12A C13A,1.34
6,G9U U10G U11C C12A C13U,1.23
7,G9U U10G U11C C12A C13G,1.29
8,G9U U10C U11A C12A,1.47
9,G9U U10C U11A C12U,1.89
10,G9U U10C U11A C12G,1.76
11,G9U U10C U11C C12G C13A,1.08
12,G9U U10C U11C C12G C13G,1.11
13,G9U U10C U11C C12G C13U,1.1
14,G9U U10G U11G C12U C13A,1.1
15,G9U U10G U11G C12U C13U,1.34
16,G9U U10G U11G C12U C13G,1.17
17,G9C U10G U11G C12A C13U,1.11
18,G9C U10G U11G C12A C13A,1.11
19,G9C U10G U11G C12A C13G,1.12
20,G9U U10G U11C C12G,1.65
21,G9U U10G U11C C12A,1.69

row,Variant,aptazyme ON/OFF ratio
1,G9U U10G U11C C12U,1.08
2,G9C U11A,1.78
3,G9C U11C,1.18
4,G9C U11G,2.2
5,G9U U10C U11C C12G,1.12
6,G9U U10C U11C C12A,1.08
7,G9U U10C U11C C12U,1.31
8,G9U C12U C13A,1.23
9,G9U C12U C13U,1.34
10,G9U C12U C13G,1.3
11,G9U U10C C12G C13A,1.35
12,G9U U10C C12G C13U,1.18
13,G9U U10C C12G C13G,1.32
14,G9C U11G C13A,1.23
15,G9C U11G C13U,1.31
16,G9C U11G C13G,1.05
17,G9U U10A U11C C12U C13G,1.39
18,G9U U10A U11C C12U C13U,1.5
19,G9U U10A U11C C12U C13A,1.11
20,G9U U10G U11G C13U,1.26
21,G9U U10G U11G C13G,1.19

row,Variant,aptazyme ON/OFF ratio
1,G9U U10G U11G C13A,1.25
2,G9C U10G U11G,1.09
3,G9U U10A C12A C13G,0.84
4,G9U U10A C12A C13A,1.22
5,G9U U10A C12A C13U,1.09
6,G9C U11A C13U,1.3
7,G9C U11A C13G,1.04
8,G9C U11A C13A,1.19
9,G9U U10G C12U,1.62
10,G9U U10G C12G,1.64
11,G9U U10G C12A,1.47
12,G9U U10A U11C C12U,1.79
13,G9U U10A U11C C12G,1.57
14,G9U U10A U11C C12A,1.72
15,G9U U10C U11C,1.63
16,G9U U10C U11G,3.45
17,G9U U10C U11A,3.16
18,G9C U10G U11C C12U C13G,1.09
19,G9C U10G U11C C12U C13U,1.24
20,G9C U10G U11C C12U C13A,1.2
